± gives the standard deviation of the averaged measurements.
Experiment: total protein half-life in vivo (active degradation + dilution); higher = more stable protein
[1] = E. coli NCM3722 delta-clpP delta-lon delta-hslV, growth: N-lim chemostat, doubling time 6 h
[2] = E. coli NCM3722 delta-clpP, growth: N-lim chemostat, doubling time 6 h
[3] = E. coli NCM3722 delta-hslV, growth: N-lim chemostat, doubling time 6 h
[4] = E. coli NCM3722 delta-lon, growth: N-lim chemostat, doubling time 6 h
[5] = E. coli NCM3722 delta-smpB, growth: N-lim chemostat, doubling time 6 h
[6] = wild type E. coli NCM3722, growth: C-lim chemostat, doubling time 3 h
[7] = wild type E. coli NCM3722, growth: C-lim chemostat, doubling time 6 h
[8] = wild type E. coli NCM3722, growth: C-lim chemostat, doubling time 12 h
[9] = wild type E. coli NCM3722, growth: N-lim chemostat, doubling time 6 h
[10] = wild type E. coli NCM3722, growth: N-lim chemostat, doubling time 12 h
[11] = wild type E. coli NCM3722, growth: P-lim chemostat, doubling time 6 h
[12] = wild type E. coli NCM3722, growth: P-lim chemostat, doubling time 12 h

Row | Sequence | total protein half-life in vivo [1] [h] | total protein half-life in vivo [2] [h] | total protein half-life in vivo [3] [h] | total protein half-life in vivo [4] [h] | total protein half-life in vivo [5] [h] | total protein half-life in vivo [6] [h] | total protein half-life in vivo [7] [h] | total protein half-life in vivo [8] [h] | total protein half-life in vivo [9] [h] | total protein half-life in vivo [10] [h] | total protein half-life in vivo [11] [h] | total protein half-life in vivo [12] [h]
1 | MDVRQSIHSAHAKTLDTQGLRNEFLVEKVFVADEYTMVYSHIDRIIVGGIMPITKTVSVGGEVGKQLGVSYFLERRELGVINIGGAGTITVDGQCYEIGHRDALYVGKGAKEVVFASIDTGTPAKFYYNCAPAHTTYPTKKVTPDEVSPVTLGDNLTSNRRTINKYFVPDVLETCQLSMGLTELAPGNLWNTMPCHTHERRMEVYFYFNMDDDACVFHMMGQPQETRHIVMHNEQAVISPSWSIHSGVGTKAYTFIWGMVGENQVFDDMDHVAVKDLR | 5.44 ± 1.1 | 3.55 | 3.6 ± 0.5 | 3.28 ± 0.7 | 3.71 ± 0.51 | 3.43 ± 0.61 | 6.02 ± 0.23 | 10.2 ± 0.68 | 4.18 | 5.64 ± 0.57 | 5.56 | 11.6 ± 0.6
2 | MDVSYLLDSLNDKQREAVAAPRSNLLVLAGAGSGKTRVLVHRIAWLMSVENCSPYSIMAVTFTNKAAAEMRHRIGQLMGTSQGGMWVGTFHGLAHRLLRAHHMDANLPQDFQILDSEDQLRLLKRLIKAMNLDEKQWPPRQAMWYINSQKDEGLRPHHIQSYGNPVEQTWQKVYQAYQEACDRAGLVDFAELLLRAHELWLNKPHILQHYRERFTNILVDEFQDTNNIQYAWIRLLAGDTGKVMIVGDDDQSIYGWRGAQVENIQRFLNDFPGAETIRLEQNYRSTSNILSAANALIENNNGRLGKKLWTDGADGEPISLYCAFNELDEARFVVNRIKTWQDNGGALAECAILYRSNAQSRVLEEALLQASMPYRIYGGMRFFERQEIKDALSYLRLIANRNDDAAFERVVNTPTRGIGDRTLDVVRQTSRDRQLTLWQACRELLQEKALAGRAASALQRFMELIDALAQETADMPLHVQTDRVIKDSGLRTMYEQEKGEKGQTRIENLEELVTATRQFSYNEEDEDLMPLQAFLSHAALEAGEGQADTWQDAVQLMTLHSAKGLEFPQVFIVGMEEGMFPSQMSLDEGGRLEEERRLAYVGVTRAMQKLTLTYAETRRLYGKEVYHRPSRFIGELPEECVEEVRLRATVSRPVSHQRMGTPMVENDSGYKLGQRVRHAKFGEGTIVNMEGSGEHSRLQVAFQGQGIKWLVAAYARLESV | 6.25 ± 0.18 | 5.48 ± 0.56 | 3.81 ± 0.25 | 4.29 ± 0.12 | 3.45 ± 0.13 | 2.96 ± 0.033 | 4.72 ± 0.42 | 8.03 ± 1.1 | 3.781 ± 0.029 | 5.67 ± 0.15 | 4.83 ± 0.25 | 7.8 ± 0.18
3 | MEALGMIETRGLVALIEASDAMVKAARVKLVGVKQIGGGLCTAMVRGDVAACKAATDAGAAAAQRIGELVSVHVIPRPHGDLEEVFPIGLKGDSSNL [P0ABF4] | 4.35 ± 0.68 | 7.77 | 4.24 ± 0.36 | 4.82 ± 0.61 | 4.98 ± 0.22 | 2.59 ± 0.7 | 5.83 ± 0.41 | 11.5 ± 1.5 | 4.8 ± 0.3 | 7.48 ± 0.57 | 5.28 ± 0.062 | 12.1 ± 1.1
4 | MEDLNVVDSINGAGSWLVANQALLLSYAVNIVAALAIIIVGLIIARMISNAVNRLMISRKIDATVADFLSALVRYGIIAFTLIAALGRVGVQTASVIAVLGAAGLAVGLALQGSLSNLAAGVLLVMFRPFRAGEYVDLGGVAGTVLSVQIFSTTMRTADGKIIVIPNGKIIAGNIINFSREPVRRNEFIIGVAYDSDIDQVKQILTNIIQSEDRILKDREMTVRLNELGASSINFVVRVWSNSGDLQNVYWDVLERIKREFDAAGISFPYPQMDVNFKRVKEDKAA [P0C0S1] | 6.89 ± 0.37 | 7.53 ± 0.59 | – | 6.91 ± 1.2 | 5.91 ± 0.16 | – | 6.24 ± 0.12 | 12.81 ± 0.023 | – | 12.7 ± 0.82 | 6.423 ± 0.022 | 13.2 ± 0.67
5 | MEFLMDPSIWAGLLTLVVLEIVLGIDNLVFIAILADKLPPKQRDKARLLGLSLALIMRLGLLSLISWMVTLTKPLFTVMDFSFSGRDLIMLFGGIFLLFKATTELHERLENRDHDSGHGKGYASFWVVVTQIVILDAVFSLDAVITAVGMVNHLPVMMAAVVIAMAVMLLASKPLTRFVNQHPTVVVLCLSFLLMIGLSLVAEGFGFHIPKGYLYAAIGFSIIIEVFNQIARRNFIRHQSTLPLRARTADAILRLMGGKRQANVQHDADNPMPMPIPEGAFAEEERYMINGVLTLASRSLRGIMTPRGEISWVDANLGVDEIREQLLSSPHSLFPVCRGELDEIIGIVRAKELLVALEEGVDVAAIASASPAIIVPETLDPINLLGVLRRARGSFVIVTNEFGVVQGLVTPLDVLEAIAGEFPDADETPEIITDGDGWLVKGGTDLHALQQALDVEHLADDDDIATVAGLVISANGHIPRVGDVIDVGPLHITIIEANDYRVDLVRIVKEQPAHDEDE [P0AEC0] | 6.99 ± 0.2 | 6.691 ± 0.015 | 6.46 ± 0.09 | 6.27 ± 0.49 | 5.4 ± 0.28 | – | 5.88 ± 0.19 | 12.3 ± 0.92 | 6.71 ± 0.84 | 14.2 ± 0.73 | 6.06 ± 0.7 | 12.2 ± 1.3
6 | MEFSFSPKRLVVAVAAALPLMASAADTPSTATARKGFAGYDHPNQYLVKPATTIADNMMPVMQHPAQDKETQQKLAELEKKTGKKPNVVVFLLDDVGWMDVGFNGGGVAVGNPTPDIDAVASQGLILTSAYSQPSSSPTRATILTGQYSIHHGILMPPMYGQPGGLQGLTTLPQLLHDQGYVTQAIGKWHMGENKESQPQNVGFDDFRGFNSVSDMYTEWRDVHVNPEVALSPDRSEYIKQLPFSKDDVHAVRGGEQQAIADITPKYMEDLDQRWMDYGVKFLDKMAKSDKPFFLYYGTRGCHFDNYPNAKYAGSSPARTSYGDCMVEMNDVFANLYKTLEKNGQLDNTLIVFTSDNGPEAEVPPHGRTPFRGAKGSTWEGGVRVPTFVYWKGMIQPRKSDGIVDLADLFPTALDLAGHPGAKVANLVPKTTFIDGVDQTSFFLGTNGQSNRKAEHYFLNGKLAAVRMDEFKYHVLIQQPYAYTQSGYQGGFTGTVMQTAGSSVFNLYTDPQESDSIGVRHIPMGVPLQTEMHAYMEILKKYPPRAQIKSD | – | – | – | – | – | – | – | – | 3.56 | – | – | –
7 | MEFSPPLQRATLIQRYKRFLADVITPDGRELTLHCPNTGAMTGCATPGDTVWYSTSDNTKRKYPHTWELTQSQSGAFICVNTLWANRLTKEAILNESISELSGYSSLKSEVKYGAERSRIDFMLQADSRPDCYIEVKSVTLAENEQGYFPDAVTERGQKHLRELMSVAAEGQRAVIFFAVLHSAITRFSPARHIDEKYAQLLSEAQQRGVEILAYKAEISAEGMALKKSLPVTL [P0A823] | 6.44 ± 0.13 | 5.88 ± 0.28 | – | 5.97 ± 0.26 | 5.41 ± 0.73 | 3.39 ± 0.092 | 6.23 ± 0.38 | 11.2 ± 0.24 | 5.71 ± 0.11 | 10.2 ± 0.88 | 5.67 ± 0.24 | 13.5 ± 1.4

From the supplement of paper PMC11246515
